From publication PMC9001735, “Insights into the inhibition of type I-F CRISPR-Cas system by a multifunctional anti-CRISPR protein AcrIF24”
“And” between values parts separate entries of the source, which are not always exact repeats. Equal values may be shown once.

How the values were obtained:
[1] = molecular target: crRNA-guided surveillance complex (Csy complex) of the type I-F CRISPR-Cas system from P. aeruginosa (P. aeruginosa) (UniProt Q02ML9); experiment: SPR; Biacore 8K, 25 °C; Csy complex immobilised on a CM5 chip (~10,000 RU), AcrIF24 injected; 20 mM HEPES pH 7.5, NaCl, 0.05% Tween-20; 1:1 Langmuir model
[2] = molecular target: crRNA-guided surveillance complex (Csy complex) of the type I-F CRISPR-Cas system from P. aeruginosa (P. aeruginosa) (UniProt Q02ML9); experiment: SEC-MALS; mix of AcrIF24 and Csy complex (7.5 mg/mL), AcrIF24:Csy 5:1; Superdex-200 10/300 GL, 20 mM HEPES pH 7.5, 200 mM NaCl
[3] = molecular target: crRNA-guided surveillance complex (Csy complex) of the type I-F CRISPR-Cas system from P. aeruginosa (P. aeruginosa) (UniProt Q02ML9); experiment: SEC-MALS; mix of AcrIF24 and Csy complex (7.5 mg/mL), AcrIF24:Csy 1:5; Superdex-200 10/300 GL, 20 mM HEPES pH 7.5, 200 mM NaCl
[4] = molecular target: AcrIF24 (full-length, wild type) (Pseudomonas aeruginosa prophage); experiment: SEC-MALS; Superdex-200 10/300 GL, 20 mM HEPES pH 7.5, 200 mM NaCl; AcrIF24 1.5 mg/mL, AcrIF24ΔMD 15 mg/mL; gel filtration coupled with static light scattering
[5] = molecular target: crRNA-guided surveillance complex (Csy complex) of the type I-F CRISPR-Cas system from P. aeruginosa (P. aeruginosa) (UniProt Q02ML9); experiment: SEC-MALS; mix of AcrIF24 and Csy complex (7.5 mg/mL), AcrIF24:Csy 1:1; Superdex-200 10/300 GL, 20 mM HEPES pH 7.5, 200 mM NaCl
[6] = molecular target: crRNA-guided surveillance complex (Csy complex) of the type I-F CRISPR-Cas system from P. aeruginosa (P. aeruginosa) (UniProt Q02ML9); experiment: SEC-MALS; co-expressed and purified Csy-AcrIF24 complex, 1.5 mg/mL; Superdex-200 10/300 GL, 20 mM HEPES pH 7.5, 200 mM NaCl
[7] = molecular target: AcrIF24 Δmiddle domain (Pseudomonas aeruginosa prophage); experiment: SEC-MALS; Superdex-200 10/300 GL, 20 mM HEPES pH 7.5, 200 mM NaCl; AcrIF24 1.5 mg/mL, AcrIF24ΔMD 15 mg/mL; gel filtration coupled with static light scattering
[8] = test system: AcrIF24 (Pseudomonas aeruginosa prophage); experiment: EMSA; conditions: EMSA: 20 mM HEPES pH 7.5, 150 mM NaCl, 5% glycerol, 37 C 30 min, 1 uM DNA (20 nM for Kd), MST: 20 mM HEPES pH 7.5, 150 mM KCl
[9] = molecular target: Csy complex;AcrIF24 (Pseudomonas aeruginosa;Pseudomonas aeruginosa prophage) (UniProt Q02ML9+Q02MM0+Q02MM1+Q02MM2); experiment: MST; conditions: Kd only in figure, EMSA: 20 mM HEPES pH 7.5, 150 mM NaCl, 5% glycerol, 37 C 30 min, 1 uM DNA (20 nM for Kd), MST: 20 mM HEPES pH 7.5, 150 mM KCl
[10] = molecular target: Csy complex;AcrIF9 (Pseudomonas aeruginosa;) (UniProt Q02ML9+Q02MM0+Q02MM1+Q02MM2); experiment: MST; conditions: Kd only in figure, EMSA: 20 mM HEPES pH 7.5, 150 mM NaCl, 5% glycerol, 37 C 30 min, 1 uM DNA (20 nM for Kd), MST: 20 mM HEPES pH 7.5, 150 mM KCl
[11] = test system: AcrIF24ΔMD (Pseudomonas aeruginosa prophage); experiment: EMSA; conditions: EMSA: 20 mM HEPES pH 7.5, 150 mM NaCl, 5% glycerol, 37 C 30 min, 1 uM DNA (20 nM for Kd), MST: 20 mM HEPES pH 7.5, 150 mM KCl
Csy complex = molecular target: T1, Csy complex (Pseudomonas aeruginosa, UniProt Q02ML9;Q02MM0;Q02MM1;Q02MM2 1-434;1-327;1-342;1-187); experiment: EMSA; EMSA: 20 mM HEPES pH 7.5, 150 mM NaCl, 5% glycerol, 37 C 30 min, 1 uM DNA (20 nM for Kd); MST: 20 mM HEPES pH 7.5, 150 mM KCl, 5% glycerol; conditions: protein: recombinant, copies: 1;1;6;1, blunt
T1 sequence 1: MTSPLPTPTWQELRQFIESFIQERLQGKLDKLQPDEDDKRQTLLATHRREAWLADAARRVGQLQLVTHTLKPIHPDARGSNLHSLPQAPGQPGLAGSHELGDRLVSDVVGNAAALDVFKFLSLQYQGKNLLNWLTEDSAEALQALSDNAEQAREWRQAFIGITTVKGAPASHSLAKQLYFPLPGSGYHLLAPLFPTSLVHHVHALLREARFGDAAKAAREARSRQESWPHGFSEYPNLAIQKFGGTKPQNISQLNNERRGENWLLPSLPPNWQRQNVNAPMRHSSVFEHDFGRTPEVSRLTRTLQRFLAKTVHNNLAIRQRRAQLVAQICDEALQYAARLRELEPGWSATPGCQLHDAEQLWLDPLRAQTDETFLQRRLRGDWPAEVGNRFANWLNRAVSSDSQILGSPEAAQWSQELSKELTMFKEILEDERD
T1 sequence 2: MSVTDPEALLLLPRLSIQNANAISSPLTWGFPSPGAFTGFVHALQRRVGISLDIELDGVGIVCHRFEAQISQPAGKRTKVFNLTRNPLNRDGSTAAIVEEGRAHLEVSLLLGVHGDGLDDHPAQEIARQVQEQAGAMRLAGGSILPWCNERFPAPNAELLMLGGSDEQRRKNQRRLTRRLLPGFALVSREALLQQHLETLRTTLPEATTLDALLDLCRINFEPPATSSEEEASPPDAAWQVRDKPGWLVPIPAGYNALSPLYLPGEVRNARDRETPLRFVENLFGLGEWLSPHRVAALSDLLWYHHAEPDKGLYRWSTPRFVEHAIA
T1 sequence 3: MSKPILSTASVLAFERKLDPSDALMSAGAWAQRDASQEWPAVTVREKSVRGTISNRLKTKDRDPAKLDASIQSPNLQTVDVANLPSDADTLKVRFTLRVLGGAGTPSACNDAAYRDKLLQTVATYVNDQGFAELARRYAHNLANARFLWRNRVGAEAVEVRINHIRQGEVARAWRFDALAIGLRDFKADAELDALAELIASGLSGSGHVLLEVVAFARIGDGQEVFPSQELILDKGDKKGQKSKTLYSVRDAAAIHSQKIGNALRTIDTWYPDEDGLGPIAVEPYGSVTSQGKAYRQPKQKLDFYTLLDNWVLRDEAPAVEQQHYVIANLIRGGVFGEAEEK
T1 sequence 4: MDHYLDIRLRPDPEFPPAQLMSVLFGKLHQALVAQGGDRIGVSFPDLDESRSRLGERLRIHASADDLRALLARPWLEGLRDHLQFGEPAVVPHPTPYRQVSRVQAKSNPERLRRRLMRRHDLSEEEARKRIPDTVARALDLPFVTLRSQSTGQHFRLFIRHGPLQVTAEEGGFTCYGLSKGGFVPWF

## AcrIF24 (full-length, wild type) (natural protein)
[1]
  Kd: 4.21 nM
  koff: 0.00118 s⁻¹
  kon: 281000 M⁻¹ s⁻¹
[2]
  stoichiometry N (AcrIF24 per Csy complex): 2 and 1
[3]
  stoichiometry N (AcrIF24 per Csy complex): 1
[4]
  stoichiometry N: 2
[5]
  stoichiometry N (AcrIF24 per Csy complex): 1

## AcrIF24 co-expressed with the Csy complex (natural protein)
[6]
  stoichiometry N (AcrIF24 per Csy complex): 1

## AcrIF24 Δmiddle domain (domain or fragment)
[7]
  stoichiometry N: 2

## GAGCGACTACGACATGAGCGCGCAGCTAAGACCGCCCGTAGATGCGTCGAGCGT (double strand) [dsDNANS 54 bp]
[8]
  Kd: 3460 nM

## GAGCGACTACGACATGAGCGCGCAGCTAAGACCGCCCGTAGATGCGTCGAGCGT [ssDNANS 54 nt]
[9]
  binding signal (fold weaker than ssDNASP): 10
[10]
  binding signal (fold weaker than ssDNASP): 10

## GCATAGCTCGATCCGAGCTAGTA (double strand) [IR23-24 WT]
[11]
  Kd: 49.1 nM
[8]
  Kd: 20.2 nM

B1: dsDNASP 54 bp (dsDNA)
DNA 1: GGAAGCCATCCAGGTAGACGCGGACATCAAGCCCGCCGTGAAGGTGCAGCTGCT
DNA 2: AGCAGCTGCACCTTCACGGCGGGCTTGATGTCCGCGTCTACCTGGATGGCTTCC
Csy complex; label: 5'-FAM or 3'-FAM on target strand, unlabelled in some assays
  binding result: binds

B2: dsDNANS 54 bp (dsDNA)
DNA 1: GAGCGACTACGACATGAGCGCGCAGCTAAGACCGCCCGTAGATGCGTCGAGCGT
DNA 2: ACGCTCGACGCATCTACGGGCGGTCTTAGCTGCGCGCTCATGTCGTAGTCGCTC
Csy complex; label: 5'-FAM or 3'-FAM
  binding result: no binding
